Assay results: patent US20120177571A1, “PANCREATIC ENDOCRINE CELL INDICATING AGENT AND UTILIZATION OF SAME” (RIKEN, priority 2009, published 2012)

Test system: pancreatic beta cells
Conditions: in vivo, 70 mg/kg
Description: 70 mg of Streptozotocin (STZ), which is selectively toxic to the pancreatic beta cells, was intraperitoneally administered to a rat per kilogram of the weight of the rat. Thus, a diabetic rat whose pancreatic beta cells were damaged was prepared. Next, ^68Ga-DOTA-octreotide (PET probe) was intravenously administered to the model rat in accordance with the method in Example 1. Next, in accordance with the method in Example 1, the abdomen of the model rat was scanned with the use of a PET and image reconstruction was performed. […] Further, as in Example 1, organs etc. were removed from the model rat after the scan, and radioactivity in each of the organs etc. was quantified.

C[C@@H](O)[C@@H]1NC(=O)[C@H](CCCCN)NC(=O)[C@@H](Cc2c[nH]c3ccccc23)NC(=O)[C@H](Cc2ccccc2)NC(=O)[C@@H](NC(=O)[C@@H](Cc2ccccc2)NC(=O)CN2CCN(CC(=O)O)CCN(CC(=O)O)CCN(CC(=O)O)CC2)CSSC[C@@H](C(=O)N[C@H](CO)[C@@H](C)O)NC1=O [^68Ga-DOTA-octreotide, metal not drawn]
accumulation of the PET probe in kidney and liver (PET image), diabetic model rat: observed
